How the values were obtained:
[1] = target: T1, cynomolgus monkey Factor Bb (cynomolgus monkey); test: ELISA; cynomolgus Factor Bb coated at 5 µg/mL, mAb in 3-fold dilutions from 10 µg/mL; EC50 by Prism according to the text, headed 'Binding Affinity (M)' on the sheet
T1 chain: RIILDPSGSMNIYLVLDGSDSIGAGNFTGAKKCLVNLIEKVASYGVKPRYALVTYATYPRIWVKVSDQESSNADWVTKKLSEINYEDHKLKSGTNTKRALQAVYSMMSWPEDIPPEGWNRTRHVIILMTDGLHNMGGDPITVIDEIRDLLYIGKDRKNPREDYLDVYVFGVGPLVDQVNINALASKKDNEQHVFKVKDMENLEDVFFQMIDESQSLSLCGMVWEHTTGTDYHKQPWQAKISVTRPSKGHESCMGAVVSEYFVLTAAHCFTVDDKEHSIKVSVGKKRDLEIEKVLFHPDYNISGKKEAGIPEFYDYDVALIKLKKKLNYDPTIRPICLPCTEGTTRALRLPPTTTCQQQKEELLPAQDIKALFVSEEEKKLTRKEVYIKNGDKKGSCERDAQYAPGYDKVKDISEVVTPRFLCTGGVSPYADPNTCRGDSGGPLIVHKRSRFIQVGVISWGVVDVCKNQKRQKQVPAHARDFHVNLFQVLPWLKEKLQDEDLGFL
Method: (§1) The relative EC₅₀ values for factor Bb mAbs were determined by ELISA. Unlabeled purified human Factor Bb (Complement Technologies; 1 μg/mL) was coated onto a high binding ELISA plate, and incubated with increasing amounts of purified mAbs (3-fold serial dilutions starting at 10 μg/mL). Horse radish peroxidase (HRP)-conjugated goat anti-mouse secondary antibody (Southern Biotech) was used for detection, and reacted with 3,3′,5,5′-Tetramethylbenzidine (TMB) 1-Step Ultra TMB-ELISA Substrate Solution (Thermo Scientific). Reactions were stopped with an equal volume of 1N sulfuric acid; and absorbance at OD₄₅₀ₙₘ was measured.
(§2) Factor Bb mAbs were assayed for their ability to bind to cynomolgus monkey Factor B or Factor Bb by ELISA. 5 μg/mL of each purified protein (Innovative Research; purified in-house) was coated onto ELISA plates, incubated with purified factor Bb mAbs (3-fold serial dilutions starting at 10 μg/mL), and bound antibody was detected as in Example 2.

purified human Factor Bb [2] = target: T2, purified human Factor Bb (human, UniProt P00751 260-764); test: antigen-capture ELISA; mAb at 1 µg/mL on goat anti-mouse IgG plates, 1 µg/mL biotinylated Factor Bb or Factor B, streptavidin-HRP; OD450 with Factor Bb divided by OD450 with Factor B
T2 construct: Bought purified protein (Complement Technologies); also called fBb; complement factor Bb
Method: (§3) Preferential binding of factor Bb antibodies to activated factor B versus full length Factor B zymogen was determined in an optimized antigen-capture ELISA format to evaluate binding to target soluble proteins. 1 μg/mL of antibody was bound to goat anti-mouse IgG coated plates (Pierce; Thermo Scientific), followed by incubation with 1 μg/mL biotinylated factor Bb or factor B (Complement Technologies). Bound factor Bb/B proteins were detected with streptavidin-HRP and reacted with TMB 1-Step Ultra TMB-ELISA Substrate Solution (Thermo Scientific). Reactions were stopped with an equal volume of 1N sulfuric acid; and absorbance at OD₄₅₀ₙₘ was measured. The ratio of absorbance of binding by Factor Bb versus Factor B (fBb/B ratio) was calculated and the results are shown in FIG. 3.

full-length Factor B = target: T3, full-length Factor B (UniProt P00751 26-764); test: antigen-capture ELISA, antibody on goat anti-mouse IgG plate
T3 construct: Biotinylated in the antigen-capture ELISA, unlabeled in SEC; also called Factor B zymogen; FB
Method: as §3

purified human Factor Bb [3] = target: T2, purified human Factor Bb; test: ELISA on coated human Factor Bb; EC50 calculated with PRISM from the curves of FIG. 1
Method: as §1
Target sequence in this assay (P00751 260-764 limits assumed): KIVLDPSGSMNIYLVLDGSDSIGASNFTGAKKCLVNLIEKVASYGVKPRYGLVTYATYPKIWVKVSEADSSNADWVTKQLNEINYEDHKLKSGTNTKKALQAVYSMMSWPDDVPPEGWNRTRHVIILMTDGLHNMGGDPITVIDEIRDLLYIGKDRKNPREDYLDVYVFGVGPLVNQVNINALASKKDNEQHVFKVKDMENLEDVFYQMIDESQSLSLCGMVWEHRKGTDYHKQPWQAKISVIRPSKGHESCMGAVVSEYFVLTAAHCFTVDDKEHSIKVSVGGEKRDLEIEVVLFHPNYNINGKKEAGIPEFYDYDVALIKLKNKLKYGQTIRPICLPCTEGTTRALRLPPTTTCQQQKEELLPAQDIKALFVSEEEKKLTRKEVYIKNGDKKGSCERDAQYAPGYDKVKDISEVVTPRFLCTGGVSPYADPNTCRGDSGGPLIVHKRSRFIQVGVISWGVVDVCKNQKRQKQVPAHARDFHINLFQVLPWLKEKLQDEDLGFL

purified human Factor Bb [4] = target: T2, purified human Factor Bb; test: antigen-capture ELISA, ratio of absorbance with biotinylated Factor Bb to that with Factor B
Method: as §3
Target sequence in this assay (P00751 260-764 limits assumed): as above

purified human Factor Bb [5] = target: T2, purified human Factor Bb; test: ELISA; human Factor Bb coated at 1 µg/mL, mAb in 3-fold dilutions from 10 µg/mL, HRP goat anti-mouse, OD450
Method: as §1
Target sequence in this assay (P00751 260-764 limits assumed): as above

[6] = target: cynomolgus monkey Factor Bb (cynomolgus monkey); test: cell-based or functional assay
[7] = target: T4, cynomolgus monkey Factor Bb (cynomolgus monkey); test: ELISA; cynomolgus Factor Bb coated at 5 µg/mL, mAb in 3-fold dilutions from 10 µg/mL; EC50 by Prism according to the text, headed 'Binding Affinity (M)' on the sheet
T4 construct: In the serum assays the target is the factor B/Bb of cynomolgus serum; also called cyno Factor Bb
Method: as §1, §2

purified human Factor Bb [8] = target: T2, purified human Factor Bb; test: antigen-capture ELISA; mAb at 1 µg/mL on goat anti-mouse IgG plates, 1 µg/mL biotinylated Factor Bb or Factor B, streptavidin-HRP; OD450 with Factor Bb divided by OD450 with Factor B; the text rounds this to 5.5
Method: as §3

purified human Factor Bb [9] = target: T2, purified human Factor Bb; test: cell-based or functional assay

B1: anti-factor Bb monoclonal antibody M17 (antibody, V domains shown)
VH: EVQLVESGGVLVKPGGSLKLSCAASGFTFSNFAMSWVRQTPAKRLEWVATISNGGGYTYYPDSVQGRFTISRDNANNTLYLQMSSLRSEDTALYYCARIYYGSSYEDWFAYWGQGTLVTVSA
VL: DIVMTPSHKFMSTSVGDRVSITCKASQDVGSAVAWYQQKPGHSPKLLIFWASTRHTGVPDRFTGSGSGTDFTLTISNVQSEDLADYFCQQYSSYPYTFGGGTRLEIK
notes: Mouse monoclonal purified from hybridoma supernatant
In the case of B1, the EC50 [1] is reported as ~2.64 nM, the “Ratio OD fBb/fB (ELISA)” value (purified human Factor Bb [2]) is reported as 70.7 and the binding result (full-length Factor B) is reported as “no binding (tested: 1 µg/mL biotinylated factor B)”. For the same binder, the EC50 (purified human Factor Bb [3]) was 3.14 nM.

B2: anti-factor Bb monoclonal antibody M4 (antibody, V domains shown)
VH: EVQLQQSGPELVKPGASVKMSCKASGYSFTDYLMNWVKQSHGKSLEWIGRINPYNGDAFYNQRFKGKATLTVDKSSSTAHMELRSLTSEDSALYYCARLENDYGFTYWGQGTLVTVSA
VL: DIVMTQAAFSNPVTLGTSASISCSSSKSLLHSNGITYLYWYLQRPGQSPQLLIYRMSNLASGVPDRFSGSGSGTDFTLRISRVEAEDVGVYYCAQMLERPWTFGGGTKLEIK
notes: Mouse monoclonal purified from hybridoma supernatant; also called Factor B/Bb antibody M4
In the case of B2, the fBb/B ratio (purified human Factor Bb [4]) is reported as ≥ 1, the “Ratio OD fBb/fB (ELISA)” value (purified human Factor Bb [2]) is reported as 0.59 and the “EC50 (read off the curve)” value (purified human Factor Bb [5]) is reported as ~0.8 nM. For the same binder, the EC50 (purified human Factor Bb [3]) was 0.874 nM and the “IC50, hemolysis of rabbit RBCs by 5% cynomolgus monkey serum” value (“IC50 … by 5% cynomolgus monkey serum” for short) [6] was 25 nM.

B3: anti-factor Bb monoclonal antibody M12 (antibody, V domains shown)
VH: B2 VH
VL: B2 VL
notes: as for B1
In the case of B3, the fBb/B ratio (purified human Factor Bb [4]) is reported as ≥ 1, the EC50 [7] is reported as 2.55 nM and the “Ratio OD fBb/fB (ELISA)” value (purified human Factor Bb [2]) is reported as 0.82. The “EC50 (read off the curve)” value (purified human Factor Bb [5]) was ~0.7 nM, the EC50 (purified human Factor Bb [3]) was 0.761 nM and the “IC50 … by 5% cynomolgus monkey serum” value [6] was 28.2 nM.

B4: anti-factor Bb monoclonal antibody M10 (antibody, V domains shown)
VH: EVQLVESGGALVKPGGSLKLSCAASGFTFSNYAMSWVRQTPEKRLEWVATISNRGSYTYYPDSVKGRFTISRDNAKNTLYLQMSSLRSEDTALYYCARERPMDYWGQGTSVTVSS
VL: DIVMTQSHKFMSTSVGDRVSITCKASQDVGTAVAWYQQKPGQSPKLLIYWASTRHTGVPDRFTGSGSGTDFTLTITNVQSEDLAVYFCHQHSSNPLTFGAGTKLELK
notes: as for B1
In the case of B4, the fBb/B ratio (purified human Factor Bb [4]) is reported as 5.5, the EC50 [7] is reported as 0.488 nM and the “EC50 (read off the curve)” value (purified human Factor Bb [5]) is reported as ~0.3 nM. For the same binder, the “Ratio OD fBb/fB (ELISA)” value (purified human Factor Bb [8]) was 5.49, the EC50 (purified human Factor Bb [3]) was 0.335 nM and the “IC50, Wieslab AP activity, 5.5% normal human serum” value (purified human Factor Bb [9]) was 97.9 nM. For the same binder, the “IC50, Wieslab AP activity, 5.5% cynomolgus monkey serum” value [6] was 367 nM and the “IC50 … by 5% cynomolgus monkey serum” value [6] was 220 nM.

B5: anti-factor Bb monoclonal antibody M18 (antibody, V domains shown)
VH: B4 VH
VL: B4 VL
notes: as for B1
For B5, the fBb/B ratio (purified human Factor Bb [4]) was 8.4, the EC50 [7] was 0.449 nM and the “EC50 (read off the curve)” value (purified human Factor Bb [5]) was ~0.3 nM. For the same binder, the EC50 (purified human Factor Bb [3]) was 0.336 nM and the “IC50 … by 5% cynomolgus monkey serum” value [6] was 232 nM.
